Measured values reported in the supplement of paper PMC11136658.

Test system: peptide library, one residue held at a place counted from the Y acceptor
Test: relative phosphorylation of the sub-library (ratio to the mean residue at this position); higher = residue favoured
Summary of the method: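 In 384-well plates, purified recombinant kinases were incubated for 90 min with 50 μM ATP containing γ-32P-ATP and biotinylated Tyr-centred peptide libraries, each mixture fixing one residue at a single position between −5 and +5. After capture on streptavidin membranes and rinsing, peptides were quantified by phosphorimaging with ImageQuant. Per-position intensities were scaled to the sum of the 18 (Ser/Thr-free library: 16) randomized residues, then multiplied by that number.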

NEK10, construct: aa266-895, human, sequence (Q6ZWH5 266-895, looked up): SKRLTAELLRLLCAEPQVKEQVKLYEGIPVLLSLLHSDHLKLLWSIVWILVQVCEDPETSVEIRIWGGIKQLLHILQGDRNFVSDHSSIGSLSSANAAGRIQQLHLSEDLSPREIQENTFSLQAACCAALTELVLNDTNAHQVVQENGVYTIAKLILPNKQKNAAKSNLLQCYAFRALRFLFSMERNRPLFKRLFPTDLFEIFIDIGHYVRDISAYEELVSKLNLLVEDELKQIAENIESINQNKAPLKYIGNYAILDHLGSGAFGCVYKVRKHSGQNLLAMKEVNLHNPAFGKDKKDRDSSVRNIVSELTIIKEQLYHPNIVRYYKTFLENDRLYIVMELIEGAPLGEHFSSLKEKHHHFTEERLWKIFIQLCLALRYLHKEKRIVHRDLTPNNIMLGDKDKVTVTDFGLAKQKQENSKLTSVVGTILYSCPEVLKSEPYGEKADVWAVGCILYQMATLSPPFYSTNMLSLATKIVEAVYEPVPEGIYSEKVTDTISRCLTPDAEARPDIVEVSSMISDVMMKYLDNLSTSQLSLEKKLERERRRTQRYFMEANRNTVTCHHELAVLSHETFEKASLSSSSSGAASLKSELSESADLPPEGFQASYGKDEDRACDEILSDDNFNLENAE

NEK10, construct: aa266-895, human (from UniProt Q6ZWH5)
relative phosphorylation
Conditions | at +1 | at +2 | at +3 | at +4 | at +5 | at -1 | at -2 | at -3 | at -4 | at -5
A fixed | 0.35 | 0.54 | 0.755 | 0.959 | 0.812 | 0.916 | 0.855 | 1.05 | 1.13 | 1.08
D fixed | 0.229 | 0.823 | 0.78 | 0.87 | 0.766 | 0.564 | 0.825 | 0.727 | 0.992 | 0.965
E fixed | 0.173 | 0.582 | 0.836 | 0.71 | 0.776 | 0.798 | 0.772 | 0.745 | 0.897 | 0.981
F fixed | 2.39 | 0.883 | 1.07 | 1.05 | 1.09 | 1.19 | 1.25 | 0.991 | 0.956 | 0.969
G fixed | 0.353 | 1.31 | 1.12 | 1.1 | 1.08 | 1.01 | 1.12 | 0.981 | 1.16 | 1.17
H fixed | 3.09 | 1.41 | 1.18 | 1.06 | 1.05 | 1.28 | 1.12 | 1.16 | 1.14 | 1.15
I fixed | 0.888 | 0.45 | 0.571 | 0.794 | 0.692 | 0.801 | 0.637 | 0.801 | 0.805 | 0.869
K fixed | 0.373 | 1.05 | 1.13 | 1.21 | 1.41 | 0.876 | 1.13 | 1.21 | 1.27 | 1.2
L fixed | 1.8 | 0.577 | 0.754 | 0.944 | 0.887 | 1.21 | 1.06 | 1.09 | 0.852 | 0.826
M fixed | 0.954 | 0.783 | 1.12 | 1 | 0.918 | 1.13 | 0.989 | 0.982 | 1.01 | 0.867
N fixed | 0.565 | 1.55 | 1.24 | 1.02 | 1.07 | 0.796 | 1.4 | 1.02 | 0.84 | 0.987
P fixed | 0.387 | 1.63 | 1.29 | 1.13 | 1.05 | 0.715 | 1.02 | 0.946 | 1.14 | 1.07
Q fixed | 0.461 | 1.65 | 1.28 | 0.915 | 1.06 | 0.916 | 0.998 | 1.07 | 0.974 | 0.931
R fixed | 0.451 | 1.25 | 1.34 | 1.29 | 1.49 | 1.05 | 1.19 | 1.55 | 1.19 | 1.31
V fixed | 0.455 | 0.473 | 0.584 | 0.771 | 0.703 | 0.708 | 0.607 | 0.695 | 0.673 | 0.735
W fixed | 3.08 | 1.04 | 0.934 | 1.17 | 1.15 | 2.04 | 1.03 | 0.981 | 0.971 | 0.901
pThr fixed | 0.242 | 0.585 | 0.599 | 0.764 | 0.714 | 0.515 | 0.453 | 0.608 | 0.64 | 0.774
pTyr fixed | 0.248 | 0.44 | 0.693 | 0.723 | 0.72 | 1.03 | 0.783 | 0.764 | 0.734 | 0.812
